Results taken from the Immune Epitope Database (IEDB).

Columns and labels:
HLA-A*29:02 [1] = test: IEDB peptide-MHC binding, purified MHC/competitive/fluorescence; filed as Kd, often an IC50 or EC50 that approximates it; ≥ and ≤ were set here for values at or beyond the usual limits of such assays
HLA-A*02:12 = test: IEDB peptide-MHC binding, purified MHC/direct/fluorescence; filed as Kd, often an IC50 or EC50 that approximates it; ≥ and ≤ were set here for values at or beyond the usual limits of such assays
HLA-A*02:01 [2] = test: as above
HLA-A*31:01 [3] = test: as above
HLA-B*57:01 [4] = test: as above
HLA-B*27:05 = test: as above
HLA-B*44:02 = test: as above
HLA-A*69:01 [5] = test: as above
HLA-B*58:01 [6] = test: as above
HLA-B*07:02 = test: as above
HLA-A*26:01 [7] = test: as above; conditions: source organism: Yersinia pestis
HLA-A*11:01 = test: as above
HLA-A*02:19 = test: as above
HLA-A*01:01 = test: as above
HLA-B*15:01 [8] = test: as above
HLA-B*51:01 [9] = test: as above; conditions: source organism: Yersinia enterocolitica subsp. enterocolitica 8081
HLA-B*08:01 = test: as above
HLA-B*40:01 = test: as above; conditions: source organism: Yersinia pestis
HLA-A*03:01 = test: as above
HLA-A*29:02 [10] = test: as above
HLA-A*02:01 [11] = test: IEDB peptide-MHC binding, purified MHC/competitive/fluorescence; ≥ and ≤ were set here for values at or beyond the usual limits of such assays
HLA-A*24:02 = test: as above
HLA-B*15:01 [12] = test: as above
HLA-A*32:01 = test: IEDB peptide-MHC binding, purified MHC/competitive/radioactivity; filed as Kd, often an IC50 or EC50 that approximates it; ≥ and ≤ were set here for values at or beyond the usual limits of such assays
HLA-B*57:01 [13] = test: as above
HLA-B*58:01 [14] = test: as above
HLA-B*46:01 [15] = test: IEDB peptide-MHC binding, purified MHC/direct/fluorescence; filed as Kd, often an IC50 or EC50 that approximates it; ≥ and ≤ were set here for values at or beyond the usual limits of such assays
HLA-B*48:01 = test: as above
HLA-B*18:01 [16] = test: as above; conditions: source organism: Mammarenavirus juninense
HLA-B*53:01 = test: IEDB peptide-MHC binding, purified MHC/competitive/radioactivity; filed as Kd, often an IC50 or EC50 that approximates it; ≥ and ≤ were set here for values at or beyond the usual limits of such assays; conditions: source organism: Dengue virus 3 Martinique/1243/1999
HLA-A*02:01 [17] = test: IEDB peptide-MHC binding, purified MHC/competitive/fluorescence; filed as Kd, often an IC50 or EC50 that approximates it; ≥ and ≤ were set here for values at or beyond the usual limits of such assays; conditions: source organism: Zaire ebolavirus
HLA-A*31:01 [18] = test: as above; conditions: source organism: Zaire ebolavirus
HLA-B*46:01 [19] = test: as above; conditions: source organism: Zaire ebolavirus
HLA-B*57:01 [20] = test: as above; conditions: source organism: Zaire ebolavirus
HLA-A*69:01 [21] = test: as above; conditions: source organism: Zaire ebolavirus
HLA-B*27:03 = test: as above; conditions: source organism: Zaire ebolavirus
HLA-B*39:01 = test: as above; conditions: source organism: Zaire ebolavirus
HLA-A*26:01 [22] = test: as above; conditions: source organism: Zaire ebolavirus
HLA-B*18:01 [23] = test: as above; conditions: source organism: Zaire ebolavirus
HLA-B*15:01 [24] = test: as above; conditions: source organism: Zaire ebolavirus
HLA-B*51:01 [25] = test: as above; conditions: source organism: Zaire ebolavirus
HLA-B*15:17 = test: as above; conditions: source organism: Zaire ebolavirus
HLA-A*23:01 = test: IEDB peptide-MHC binding, purified MHC/direct/fluorescence; filed as Kd, often an IC50 or EC50 that approximates it; ≥ and ≤ were set here for values at or beyond the usual limits of such assays; conditions: source organism: Zaire ebolavirus
HLA-A*24:03 = test: as above; conditions: source organism: Zaire ebolavirus
[26] = source organism: Yersinia enterocolitica subsp. enterocolitica 8081
[27] = source organism: Yersinia pestis Nepal516
[28] = source organism: Yersinia pestis
[29] = source organism: Sudan ebolavirus
[30] = source organism: Vaccinia virus Copenhagen
[31] = source organism: Dengue virus 3 Singapore/8120/1995
[32] = source organism: Mammarenavirus lassaense
[33] = source organism: Mammarenavirus juninense
[34] = source organism: Dengue virus 3 Martinique/1243/1999
[35] = source organism: Zaire ebolavirus

Sequence: LLYYWVHLF
- Kd (HLA-A*29:02 [1]; source organism: Bacillus thuringiensis str. Al Hakam): 0.022 µM

Sequence: ETIFTVLAL
- Kd (HLA-A*02:12; [26]): ≥ 20 µM
- Kd (HLA-A*02:01 [2]; [27]): ≥ 20 µM
- Kd (HLA-A*31:01 [3]; [27]): ≥ 20 µM
- Kd (HLA-B*57:01 [4]; [26]): ≥ 20 µM
- Kd (HLA-B*27:05; [27]): ≥ 20 µM
- Kd (HLA-B*44:02; [27]): ≥ 20 µM
- Kd (HLA-A*69:01 [5]; [28]): 0.0035 µM
- Kd (HLA-B*58:01 [6]; [27]): ≥ 20 µM
- Kd (HLA-B*07:02; [28]): 4.5 µM
- Kd (HLA-A*26:01 [7]): 0.00767 µM
- Kd (HLA-A*11:01; [27]): ≥ 20 µM
- Kd (HLA-A*02:19; [26]): ≥ 20 µM
- Kd (HLA-A*01:01; [27]): ≥ 20 µM
- Kd (HLA-B*15:01 [8]; [27]): ≥ 20 µM
- Kd (HLA-B*51:01 [9]): ≥ 20 µM
- Kd (HLA-B*08:01; [27]): ≥ 20 µM
- Kd (HLA-B*40:01): 2.41 µM
- Kd (HLA-A*03:01; [27]): ≥ 20 µM
- Kd (HLA-A*29:02 [10]; [26]): 0.182 µM

Sequence: HMQISTIGI
- IC50 (HLA-A*02:01 [11]; [29]): 4.09 µM
- IC50 (HLA-A*24:02; [29]): 15.6 µM
- IC50 (HLA-B*15:01 [12]; [29]): 9.61 µM

Sequence: ASPMLYQLL
- IC50 (HLA-A*02:01 [11]; [30]): 39.6 µM
- IC50 (HLA-A*24:02; [30]): 0.233 µM
- IC50 (HLA-B*15:01 [12]; [30]): 37.2 µM

Sequence: LQLFLRATT
- IC50 (HLA-A*02:01 [11]; [29]): ≥ 125 µM
- IC50 (HLA-B*15:01 [12]; [29]): ≥ 91.4 µM

Sequence: FESTITGEY
- Kd (HLA-A*29:02 [1]; source organism: Vibrio cholerae 2740-80): 0.0075 µM

Sequence: FLPNPAFIH
- IC50 (HLA-A*02:01 [11]; source organism: Variola virus): 2.11 µM
- IC50 (HLA-A*24:02; source organism: Variola virus): 0.497 µM
- IC50 (HLA-B*15:01 [12]; source organism: Variola virus): 25.5 µM

Sequence: KVMEITAEW
- Kd (HLA-A*32:01; [31]): 0.0143 µM
- Kd (HLA-B*57:01 [13]; [31]): 0.0181 µM
- Kd (HLA-B*58:01 [14]; [31]): 0.00109 µM

Sequence: DIKLIDIAL
- Kd (HLA-A*02:01 [2]; [32]): ≥ 20 µM
- Kd (HLA-A*31:01 [3]; [32]): ≥ 20 µM
- Kd (HLA-B*46:01 [15]; [32]): ≥ 20 µM
- Kd (HLA-B*57:01 [4]; [32]): ≥ 20 µM
- Kd (HLA-B*27:05; [32]): ≥ 20 µM
- Kd (HLA-B*44:02; [32]): ≥ 20 µM
- Kd (HLA-B*58:01 [6]; [32]): ≥ 20 µM
- Kd (HLA-B*48:01; [32]): ≥ 20 µM
- Kd (HLA-B*07:02; [32]): ≥ 20 µM
- Kd (HLA-A*11:01; [32]): ≥ 20 µM
- Kd (HLA-A*01:01; [32]): ≥ 20 µM
- Kd (HLA-B*15:01 [8]; [32]): ≥ 20 µM
- Kd (HLA-B*08:01; [32]): 0.894 µM
- Kd (HLA-A*03:01; [32]): ≥ 20 µM
- Kd (HLA-A*29:02 [10]; [32]): ≥ 20 µM

Sequence: QLAKRSEIL
- Kd (HLA-A*31:01 [3]; [33]): ≥ 20 µM
- Kd (HLA-B*46:01 [15]; [33]): ≥ 20 µM
- Kd (HLA-B*57:01 [4]; [33]): ≥ 20 µM
- Kd (HLA-B*27:05; [33]): ≥ 20 µM
- Kd (HLA-B*44:02; [33]): ≥ 20 µM
- Kd (HLA-A*69:01 [5]; [33]): ≥ 20 µM
- Kd (HLA-B*58:01 [6]; [33]): ≥ 20 µM
- Kd (HLA-B*48:01; [33]): ≥ 20 µM
- Kd (HLA-A*11:01; [33]): ≥ 20 µM
- Kd (HLA-B*18:01 [16]): ≥ 20 µM
- Kd (HLA-A*01:01; [33]): ≥ 20 µM
- Kd (HLA-B*08:01; [33]): 1.3 µM
- Kd (HLA-A*03:01; [33]): ≥ 20 µM
- Kd (HLA-A*29:02 [10]; [33]): ≥ 20 µM

Sequence: GATTETPTW
- Kd (HLA-B*53:01): 0.0692 µM
- Kd (HLA-B*57:01 [13]; [34]): 0.0804 µM
- Kd (HLA-B*58:01 [14]; [34]): 0.00208 µM

Sequence: YFGPAAEGI
- IC50 (HLA-A*02:01 [11]; [35]): 60 µM
- IC50 (HLA-A*24:02; [35]): 0.253 µM
- IC50 (HLA-B*15:01 [12]; [35]): ≥ 197 µM

Sequence: SLTESDMDY
- IC50 (HLA-A*02:01 [11]; [35]): ≥ 140 µM
- IC50 (HLA-B*15:01 [12]; [35]): 68.3 µM

Sequence: PATLLVWHTW
- Kd (HLA-A*32:01; [34]): 3.67 µM
- Kd (HLA-B*57:01 [13]; [34]): 1.39 µM
- Kd (HLA-B*58:01 [14]; [34]): 0.278 µM

Sequence: AMNEENRFV
- IC50 (HLA-A*02:01 [11]; [35]): 6.8 µM
- IC50 (HLA-B*15:01 [12]; [35]): ≥ 220 µM

Sequence: TSACGIFLK
- Kd (HLA-A*02:01 [17]): ≥ 20 µM
- Kd (HLA-A*31:01 [18]): ≥ 20 µM
- Kd (HLA-B*46:01 [19]): ≥ 20 µM
- Kd (HLA-B*57:01 [20]): ≥ 20 µM
- Kd (HLA-A*69:01 [21]): ≥ 20 µM
- Kd (HLA-B*27:03): ≥ 20 µM
- Kd (HLA-B*39:01): ≥ 20 µM
- Kd (HLA-A*26:01 [22]): ≥ 20 µM
- Kd (HLA-B*18:01 [23]): ≥ 20 µM
- Kd (HLA-B*15:01 [24]): ≥ 20 µM
- Kd (HLA-B*51:01 [25]): ≥ 20 µM
- Kd (HLA-B*15:17): ≥ 20 µM
- Kd (HLA-A*02:12; [35]): ≥ 20 µM
- Kd (HLA-A*23:01): ≥ 20 µM
- Kd (HLA-A*24:03): ≥ 20 µM
- Kd (HLA-A*02:19; [35]): ≥ 20 µM
- Kd (HLA-A*03:01; source organism: Sudan ebolavirus - Maleo (1979)): 1.1 µM
- Kd (HLA-A*29:02 [10]; [35]): ≥ 20 µM
